In patent US20260125457A1 (Janssen / Centocor, published 2026):

Columns and labels:
[1] = target: T1, Flag/6xhis-CALRdel52 (CALRW12.007) (human, UniProt P27797 18-417); experiment: SPR
T1 construct: also called human CALRdel52
T1 sequence (looked up): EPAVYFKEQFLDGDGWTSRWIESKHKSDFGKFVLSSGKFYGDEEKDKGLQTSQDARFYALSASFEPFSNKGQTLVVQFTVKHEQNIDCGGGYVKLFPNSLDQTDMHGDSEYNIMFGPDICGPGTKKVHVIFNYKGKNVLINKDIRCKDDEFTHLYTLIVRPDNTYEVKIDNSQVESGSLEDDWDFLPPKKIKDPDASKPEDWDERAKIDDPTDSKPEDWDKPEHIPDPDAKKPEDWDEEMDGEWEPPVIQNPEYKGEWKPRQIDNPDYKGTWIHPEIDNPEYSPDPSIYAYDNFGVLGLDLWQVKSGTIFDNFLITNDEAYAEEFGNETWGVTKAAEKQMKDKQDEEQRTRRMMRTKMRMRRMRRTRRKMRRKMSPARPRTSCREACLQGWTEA

[2] = target: T2, CD3EG-HSA-6xHis (CD3W220.002) (human, UniProt P07766 22-118; P09693 23-103); experiment: SPR
T2 construct: also called human CD3; not shown: human serum albumin (HSA); 6xHis tag
T2 sequence (P07766 other isoform, or with tags, fused parts or gaps): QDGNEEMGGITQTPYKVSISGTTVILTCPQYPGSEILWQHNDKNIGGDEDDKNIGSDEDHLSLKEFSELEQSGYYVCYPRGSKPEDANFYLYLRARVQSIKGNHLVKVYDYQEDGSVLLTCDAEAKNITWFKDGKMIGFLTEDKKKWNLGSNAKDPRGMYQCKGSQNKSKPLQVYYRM

[3] = target: T3, wild-type CALR (CALRW14.001) (UniProt P27797 18-417, limits assumed); experiment: SPR
T3 sequence (looked up): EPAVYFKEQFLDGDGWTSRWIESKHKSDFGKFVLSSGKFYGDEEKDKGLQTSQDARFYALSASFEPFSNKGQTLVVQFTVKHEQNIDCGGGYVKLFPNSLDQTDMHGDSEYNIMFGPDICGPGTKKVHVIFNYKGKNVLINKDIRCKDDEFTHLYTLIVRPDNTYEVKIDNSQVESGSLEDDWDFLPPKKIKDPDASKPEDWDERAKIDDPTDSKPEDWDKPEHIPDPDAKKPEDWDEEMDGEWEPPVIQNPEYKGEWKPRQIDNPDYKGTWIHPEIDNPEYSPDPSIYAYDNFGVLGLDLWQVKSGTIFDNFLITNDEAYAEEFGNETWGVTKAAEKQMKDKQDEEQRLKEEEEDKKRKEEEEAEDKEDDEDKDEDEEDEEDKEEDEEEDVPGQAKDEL

[4] = target: T4, Avi/his-CalR-Ins5 (CALRW28.004) (human, UniProt P27797 18-417, limits assumed); experiment: SPR, forced degradation: Thermal
T4 construct: also called human CALRins5
T4 sequence (looked up): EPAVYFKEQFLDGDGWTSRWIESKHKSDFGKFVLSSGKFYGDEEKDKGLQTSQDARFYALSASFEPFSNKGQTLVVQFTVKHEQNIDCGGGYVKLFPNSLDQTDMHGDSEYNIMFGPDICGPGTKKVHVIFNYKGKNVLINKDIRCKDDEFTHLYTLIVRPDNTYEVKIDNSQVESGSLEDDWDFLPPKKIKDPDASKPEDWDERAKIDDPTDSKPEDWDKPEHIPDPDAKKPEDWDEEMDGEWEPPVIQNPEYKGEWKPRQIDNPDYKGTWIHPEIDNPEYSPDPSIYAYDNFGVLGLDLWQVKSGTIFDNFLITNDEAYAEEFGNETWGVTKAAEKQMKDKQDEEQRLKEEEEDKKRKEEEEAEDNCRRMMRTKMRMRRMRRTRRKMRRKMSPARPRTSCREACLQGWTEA

[5] = target: T1, Flag/6xhis-CALRdel52 (CALRW12.007); experiment: SPR, forced degradation: Thermal
[6] = target: T2, CD3EG-HSA-6xHis (CD3W220.002); experiment: SPR, forced degradation: Thermal
[7] = target: T5, CD3 on primary human pan T cells (human, UniProt P07766 23-207); experiment: flow cytometry on pan CD3 T cells, 1 h at 37 C, AF647 secondary antibody, Geometric Mean
T5 construct: whole, on cells; also called CD3e; CD3ε
T5 sequence (P07766 23-207): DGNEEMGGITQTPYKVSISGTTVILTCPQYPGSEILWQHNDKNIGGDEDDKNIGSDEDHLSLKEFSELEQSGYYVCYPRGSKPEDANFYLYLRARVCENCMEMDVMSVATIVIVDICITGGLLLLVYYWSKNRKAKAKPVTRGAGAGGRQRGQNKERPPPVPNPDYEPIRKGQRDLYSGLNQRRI

[8] = target: T6, CALRins5 (mutant calreticulin, 5 base pair insertion, Type 2) expressed with MPL on engineered cancer cells (UniProt P27797 18-417); experiment: flow cytometry on ELF-153 MPL CALRins5 cells, 1 h at 37 C, AF647 secondary antibody, Geometric Mean
T6 construct: whole, on cells; On the cell surface in complex with MPL; also called OCI-M2 MPL CALRins5
T6 sequence (looked up): T4 sequence (looked up)
Description: FIGS. 4A-4F depict graphs of CALRmutxCD3 bispecific antibody C3CRB73 binding to cells CALRmut-negative or CALRmut-positive. Flow cytometry was used to evaluate C3CRB73 binding to CALRmut-negative and CALRmut-positive cancer cells in vitro. C3CRB73 and NullxCD3 control were tested on a panel of cell lines, engineered to express MPL and CALRmut, after 1 hour 37° C. incubation, with subsequent incubation with secondary AF647-labeled antibody. Geometric mean fluorescence intensity of AF647 was measured to determine antibody binding. […] Abbreviations: CALR, calreticulin; CALRmut, mutant calreticulin; CD, cluster of differentiation; del, deletion; ins, insertion; MPL, thrombopoietin receptor; spFv, stapled single chain fragment variable; wt, wild type.

[9] = target: T6, CALRins5 (mutant calreticulin, 5 base …); experiment: flow cytometry on OCI-M2 MPL CALRins5 cells, 1 h at 37 C, AF647 secondary antibody, Geometric mean
Description: FIGS. 27A-27F depict binding of different CALRmutxCD3 antibodies to CALRmut-negative or CALRmut-positive cells. Flow cytometry was used to evaluate CALRmutxCD3 binding to CALRmut-negative and CALRmut-positive cancer cells in vitro. CALRmutxCD3 antibodies were tested on a panel of cell lines, engineered to express MPL and CALRmut, after 1 hour 37° C. incubation, with subsequent incubation with secondary AF647-labeled antibody. Geometric mean fluorescence intensity of AF647 was measured to determine antibody binding.

B1: C3CRB73 CALRmut x CD3 bispecific antibody (bispecific antibody, human IgG1, kappa, L234A L235A)
heavy: EVQLLESGGGLVQPGGSLRLSCAVSGIDLSNNAISWVRQAPGKGLEYVGVIGNTGDTYYADSAKGRFTISRDSSKTTLYLQMNSLRAEDTAVYFCVRGPPSYSSSVKNIWGQGTLVTVSSASTKGPSVFPLAPSSKSTSGGTAALGCLVKDYFPEPVTVSWNSGALTSGVHTFPAVLQSSGLYSLSSVVTVPSSSLGTQTYICNVNHKPSNTKVDKKVEPKSCDKTHTCPPCPAPEAAGGPSVFLFPPKPKDTLMISRTPEVTCVVVSVSHEDPEVKFNWYVDGVEVHNAKTKPREEQYNSTYRVVSVLTVLHQDWLNGKEYKCKVSNKALPAPIEKTISKAKGQPREPQVYTLPPSREEMTKNQVSLSCAVKGFYPSDIAVEWESNGQPENNYKTTPPVLDSDGSFFLVSKLTVDKSRWQQGNVFSCSVMHEALHNRFTQKSLSLSPGK
light: DIQMTQSPSSVSASVGDRVTITCQSSQSVYNNNWLSWLQQKPGKAPKRLIYDASKLESGVPSRFSGSGSGTDFTLTISSVQPEDAATYYCAGGFTGNVYTFGGGTKVEIKRTVAAPSVFIFPPSDEQLKSGTASVVCLLNNFYPREAKVQWKVDNALQSGNSQESVTEQDSKDSTYSLSSTLTLSKADYEKHKVYACEVTHQGLSSPVTKSFNRGEC
scFv: DIQMTQSPSSLSASVGDRVTITCRARQSIGTAIHWYQQKPGCAPKLLIKYASESISGVPSRFSGSGSGTDFTLTISSLQPEDFATYYCQQSGSWPYTFGQGTKLEIKGGGSGGSGGCPPCGGSGGEVQLVESGGGLVKPGGSLRLSCAASGFTFSRYNMNWVRQAPGKGLEWVSSISTSSNYIYYADSVKGRFTFSRDNAKNSLDLQMSGLRAEDTAIYYCTRGWGPFDYWGCGTLVTVSSEPKSSDKTHTCPPCPAPEAAGGPSVFLFPPKPKDTLMISRTPEVTCVVVSVSHEDPEVKFNWYVDGVEVHNAKTKPREEQYNSTYRVVSVLTVLHQDWLNGKEYKCKVSNKALPAPIEKTISKAKGQPREPQVYTLPPSREEMTKNQVSLWCLVKGFYPSDIAVEWESNGQPENNYKTTPPVLDSDGSFFLYSKLTVDKSRWQQGNVFSCSVMHEALHNHYTQKSLSLSPGK
notes: IgG1-AAS; also called JNJ-88549968; CALRB421 Fab x CD3 spFv
Question: For B1, which Kd [1] is on record?
Answer: 0.0602 nM

Question: What about the Kd [2] of the same binder?
Answer: 0.214 nM

Question: Does B1 bind [3]?
Answer: no binding (tested: 300 nM)

Question: What about the “% Active” value [4] of the same binder?
Answer: 94%

Question: And the Kd [4]?
Answer: 0.0357 nM

Question: What about the “% Active” value [5] of the same binder?
Answer: 98%

Question: What about the Kd [5] of the same binder?
Answer: 0.0664 nM

Question: And the “% Active” value [6]?
Answer: 94%

Question: And the Kd [6]?
Answer: 0.225 nM

Question: What about the “EC50 (read off the curve)” value [7] of the same binder?
Answer: ~7 nM

Question: And the “EC50 (read off the curve)” value [8]?
Answer: ~4 nM

Question: And the “EC50 (read off the curve)” value [9]?
Answer: ~5 nM
